These results are taken from patent US12139531B2, “Compositions and methods useful in promoting milk production” (The Regents of the University of California, priority 2019, dated 2024).

For one data set, the system named is Notch signaling. Briefly: RT-qPCR of Notch effector expression (Hey1, Hes1) in HC11 cells. The data set is classed as cell-based, mouse. The settings on record: HC11 cells treated with ROBO1-ECD fragments. How it is done:
(§1) To examine the effects of ROBO1-ECD fragments on Notch signaling, HC11 cells were treated with ROBO1-ECD fragments and Notch effector expression assessed. […] In addition, HC11 cells were treated with ROBO-Ig5 during differentiation. These cells were then fractionated and a Western blot performed to detect HES1 and NOTCH4-ICD (FIG. 8B).
Total RNA was harvested from cells lysed in TRIzol reagent (Invitrogen) and phase separated according to manufacturer's protocol with an additional overnight RNA precipitation stem in ethanol (Macias et al., 2011). The RNA was further purified with TURBO DNase (Ambion) treatment. Total RNA quality was analyzed by agarose gel electrophoresis and quantified with an ND-1000 spectrophotometer (NanoDrop). cDNA libraries were prepared from 1 μg of total RNA using iScript cDNA synthesis kit (BioRad). Quantitative RT-PCR was performed in triplicates using light Cycler 480 SYBR Green I Master (Roche) and quantified using BioRad CFX'Connect Real-Time System and CFX Manager software (BioRad). Results were normalized to GAPDH.
(In general: In qPCR the cycle at which signal appears reflects the starting amount.)

The next data set deals with NOTCH4. Nature of the data set: Cell fractionation and Western blot for HES1 and NOTCH4-ICD in HC11 cells. The data set is classed as cell-based, mouse. The settings on record: HC11 cells treated during differentiation. How it is done: Notch receptor activation can be regulated through direct interactions with binding partners^24. […] To address this possibility, co-immunoprecipitation experiments were performed using MBA-MD-231 cells lysates, which express detectable levels of all four Notch receptors (NOTCH1-4). Endogenous ROBO1 co-immunoprecipitated with NOTCH4, but not […], NOTCH2 or NOTCH3 (FIG. 3H and data not shown). Next, the expression and subcellular localization of the NOTCH4 intracellular domain (N4-ICD) and HES1 was examined in control (Scr) and Robo1 (siR1) knockdown HC11 cells. Expression of Robo1 was inhibited in HC11 cells that were then primed for differentiation as described above. […] This effect was not observed in control Robo1 knockdown cells engineered to overexpress Robo1 (siR1+o/e) or cells treated with the γ-secretase inhibitor GSI (siR1+GSI) (FIGS. 3I-3K).
as §1
Protein lysates were prepared by directly lysing adherent cells in 1× sample buffer supplemented with 5% beta-mercaptoethanol and boiled for 5 minutes. Protein lysate was resolved by SDS-PAGE and transferred to a PVDF for 90 minutes at 400 mA or overnight at 30 mA. Primary antibodies were used at the concentration indicated in Table 1 and incubated overnight at 4° C. HRP conjugated secondary antibodies (Jackson Labs) were used at 1:3000 and incubated for 45 minutes at room temp. All proteins were detected using Clarity ECL (BioRad) using a BioRad Chemi-Doc MP Imager and quantified using ImageLab software as previously described a.

Data set [1] concerns bovine alveolar progenitor cells (AVPs). Nature of the data set: Organoid growth of FACS-purified bovine alveolar progenitor cells in Matrigel. The data set is classed as cell-based. The settings on record: single cells in Matrigel, 10 days, vs untreated controls. Here is the method: The influence of ROBO1 ECD fragments in vitro on primary alveolar progenitor cell growth and in vivo on branching morphogenesis was tested. FACS-purified murine and bovine alveolar progenitor cells (AVPs) were plated as single cells in Matrigel and grown for 10 days in the absence and presence of ROBO1-ECDs fragments (FIGS. 9A, B). […] ROBO1-Ig5 fragments were also tested in vivo by subcutaneously injecting them (7.5 mammary gland/kg/day) into ovariectomized animals that were orally administered hormones in Nutella: estrogen (E, 1 μg/day), progesterone (P, 1 mg/day mammary gland/day) and prolactin (Prl, 0.2 mg/day mammary gland/day) (FIG. 9C). The mammary glands were harvested after 14 days of ROBO1-Ig5 fragment treatment, carmine stained and evaluated. […] Other aspects can involve ROBO1-ECD constructs that are tagged with the murine-Fc sequence. This tag is recognized by an endogenous receptor that facilitates transport into tissues 4.
FACS purified AVPs were cultured in Matrigel (BD Bioscience) at a density of 5000 cell/100 uL and cultured in basal medium; DMEM: F12 phenol-free, 10 mM HEPES, N2 (Gibco), B27 (Gibco) supplemented with 100 ng/mL Neuregulin (R&D), 42.5 ng/mL R-Spondin1 (Peprotech) […]. […]

Data set [2] is described as follows: Western blot of TCA-precipitated media for intact ROBO1-Ig5. The data set is classed as physicochemical. The settings on record: after 6 days in media, absence and presence of heparin (300 ng/ml). From the text:
Three recombinant ROBO1 ECD constructs were constructed: one comprising two immunoglobulin (Ig) domains (ROBO1-Ig2), another comprising all five Ig domains (ROBO1-Ig5), and another comprising the entire extracellular domain (ROBO1-Ecto) (FIG. 6A). In other constructs, HA (hemagglutinin), Myc, and human and mouse immunoglobulin Fc were fused to the Robo1 ECDs (FIG. 6A, 5F right). Extracellular domains of Deleted in Colorectal Cancer (DCC), a structurally similar Ig superfamily member to ROBO1, comprising either two Ig (DCC-Ig2) or four Ig (DCC-Ig4) domains and tagged with HA were constructed for use as negative controls (FIG. 6A, 5F right). Expression secretion of the constructs was confirmed by overexpressing the constructs in HEK293 cells and performing Western blots on cell lysates and media (FIG. 6B). […] Robo1-Ig5 as used herein was expressed in HEK-293 cells in the absence and presence of heparin (300 ng/ml). Media were collected from these ROBO1-Ig5 overexpressing cells on days two, four and six following plasmid transfection. Dot blot dilution assays of the collected media were performed to evaluate the relative secretion of this soluble ROBO1 ECD (FIG. 6C).
Add 1 volume of TCA stock to 4 volumes of protein sample. Incubate 10 min at 4° C. Spin tube in microcentrifuge at 14K rpm, 5 min. Remove supernatant, leaving protein pellet intact Wash pellet with 200 μl cold acetone. […]
(A western blot detects proteins with antibodies after separation by electrophoresis.)

Entries after “also recorded” stand apart in the source; their conditions may differ.

B1: ROBO1-Ig5: recombinant soluble ROBO1 ECD construct comprising all five Ig domains (protein)
chain: SRLRQEDFPPRIVEHPSDLIVSKGEPATLNCKAEGRPTPTIEWYKGGERVETDKDDPRSHRMLLPSGSLFFLRIVHGRKSRPDEGVYICVARNYLGEAVSHNASLEVAILRDDFRQNPSDVMVAVGEPAVMECQPPRGHPEPTISWKKDGSPLDDKDERITIRGGKLMITYTRKSDAGKYVCVGTNMVGERESEVAELTVLERPSFVKRPSNLAVTVDDSAEFKCEARGDPVPTVRWRKDDGELPKSRYEIRDDHTLKIRKVTAGDMGSYTCVAENMVGKAEASATLTVQEPPHFVVKPRDQVVALGRTVTFQCEATGNPQPAIFWRREGSQNLLFSYQPPQSSSRFSVSQTGDLTVTNVQRSDVGYYICQTLNVAGSIITKAYLEVTDVIADRPPPVIRQGPVNQTVAVDGTLTLSCVATGSPVPTILWRKDGVLVSTQDSRIKQLESGVLQIRYAKLGDTGRYTCTASTPSGEATWSAYIEVQEF
In the case of B1, in the data set on Notch signaling, the Hes1 expression result is “lower expression; also recorded: decreased” and the Hey1 expression result is “lower expression; also recorded: decreased”. Moreover, the “NOTCH4-ICD in the cytoplasmic fraction” value in the data set on NOTCH4 is on record as “lower; also recorded: reduced”. In the data set on NOTCH4 (relative to control treatment), the “HES1 protein in the nuclear fraction” value is given as “lower levels; also recorded: decreased” and the “NOTCH4-ICD (N4-ICD) protein in the nuclear fraction” value is “lower levels; also recorded: decreased”. In data set [1], the “size of bovine organoids” value is listed as “larger bovine organoids; also recorded: increased the size”. Also, the “integrity of ROBO1-Ig5 protein in media” value in data set [2] is on record as “intact; also recorded: no protein degradation”.
